Key:
[1] = biological target: FLT3-transfected 3T3 cells (murine FLT3 extracellular portion/human Fms chimera and/or full-length human FLT3; not told apart); assay: cell-based or functional assay
[2] = in vivo; cited from earlier work
[3] = system: Flt3-expressing 3T3 cells; assay: Flt3 3T3 assay during purification of Pv-FRIL; type: cell-based; conditions: by itself at <1 ng/mL
Protocol: To create factor-dependence for receptor-transfected 3T3 cells, growth conditions were compromised to permit only ligands to rescue cells from death. To do this, 3T3 cell lines were assayed in 96 well plates (Becton Dickinson Labware, Lincoln Park, N.J.) containing 3,000 cells in 100 μL of serum-free medium consisting of 10% AIMV (Life Technologies) and 90% DMEM. In each experiment, samples were serially diluted two-fold across rows starting at a 1:10 dilution. Viable cells were quantitated after 3-5 days by XTT (2,3-bis[Methoxy-4-nitro-5sulfophenyl]-2H-tetrazolium-5 carboxanilide inner salt) (Sigma, St. Louis, Mo.) (Roehm et al., supra). Relative activity (units/ml) and specific activity (units/mg) are defined as the reciprocal dilution at which half-maximal stimulation of cells was detected.
Each batch of PHA-LCM was generated in serum-free medium with cells from individual normal donors. To start purification, the PHA-LCM with Flt3 3T3 activity was pooled in 30 liter lots with approximately 10^7 Flt3 3T3 units. Twenty-five liters of PHA-LCM was diafiltered into 50 mM Tris-HCl, pH 7.6, 50 mM NaCl and then concentrated to 2-2.5 liters by tangential flow ultrafiltration on a 10 kDa molecular weight cutoff membrane (Pellicon, Millipore, Bedford, Mass.). A Blue-sepharose FF (Pharmacia Biotech) column (10 cm×15 cm) was equilibrated with 50 mM Tris-HCl, pH 7.4,50 mM NaCl. […]

[4] = system: CB CD34+ progenitor cells; assay: ex vivo culture of CB CD34+ cells: total cell numbers and CFU assay; type: cell-based, human
Protocol: Human umbilical cord blood (CB) samples were obtained from full term deliveries. The blood samples were diluted 1:1 in phosphate-buffered-saline (PBS) without Mg^+2/Ca^+2, supplemented with 10% fetal bovine serum (FBS). Low density mononuclear cells were collected after standard separation on Ficoll-Paque (Pharmacia Biotech, Uppsala, Sweden), and washed in RPMI with 10% FBS. Some samples were frozen in 10% DMSO, while the others were used fresh. Enrichment of CD34^+ cells was performed with mini MACS separation kit (Miltenyi Biotec, Bergisch Gladbach, Germany) according to the manufacturer's instructions. The purity of the enriched CD34^+ cells was 60-80% using one column. […]
Ex vivo Cultures Human CD34^+ enriched cells were cultured in 24 well plates (2-4×10^5 cells in 0.5 mL), containing RPMI supplemented with 10% FBS+1% BSA. […] After 3, 6, 10 and 13 days, the cells were collected, counted, analyzed by FACS, seeded in to semisolid cultures and transplanted into NOD-SCID mice.
Semisolid cultures were performed in order to detect the levels of human progenitors in ex vivo cultures, and in the marrow of transplanted mice. […] The cultures were incubated at 37° C. in a humidified atmosphere containing 5% CO2 and scored 14 days later with an inverted microscope for myeloid, erythroid, and mixed colonies by morphologic criteria. […]

FLT3 receptor = type: cell-based; conditions: murine chimeric or full length human receptor
Source text: A specific and quantitative biological assay using NIH 3T3 fibroblasts transfected either with a chimeric receptor having the extracellular portion of the murine FLT3 receptor combined with the intracellular portion of the human Fms receptor (Dosil et al., Mol. Cell. Biol. 13(10):6572-6585 1993) or with the full length human receptor (Small et al., Proc. Natl. Acad. Sci. USA 91:459-463, 1994) can be used to evaluate lectin biological activity during purification. Serial two-fold dilutions of lectin samples across rows of a 96 well plate allowed for greater than a thousand-fold range to access FLT3 3T3 biological activity.
Specifically, 3T3 cells cultured in tissue culture plates (Becton Dickinson Labware, Lincoln Park, N.J.) were removed from the plates by washing cells twice in Hank's buffered saline solution (HBSS; Gibco Laboratories, Grand Island, N.Y.). […] Proliferation and cell survival was quantitated by addition of XTT (2, 3-bis[Methoxy-4-nitro-5sulfophenyl]-2H-tetrazolium-5 carboxanilide inner salt) (Diagnostic Chemicals Ltd, Charlottetown, Prince Edward Island, Canada), which is a tetraformazan salt cleaved by actively respiring cells (Roehm et al., J. Immunol. Methods 142: 257-265, 1991). […] One unit of biological activity was defined as the reciprocal dilution at which half-maximal stimulation of cells is detected.

[5] = system: human cord blood progenitors; assay: cord blood mononuclear cell liquid culture followed by methylcellulose colony assay; type: cell-based; conditions: for Blast colonies / Erythroid colonies / Mix colonies / Myeloid colonies: 40 ng/ml, ± SD of triplicate
Protocol: To do this, umbilical cord blood from healthy donors was collected in 100 units/ml of heparin. Cord blood mononuclear cells (CB mnc) were isolated within 4 hours of collection by separation using the density separation medium sold under the trademark of FICOLL-PAQUE® (Pharmacia Biotech, Piscataway, N.J.) following manufacturer's instruction and washed in X-VIVO 10 medium (BioWhittaker, Walkersville, Md.). CB mnc were then cultured in six well tissue culture plates (Corning Inc., Corning, N.Y.) at a concentration of 200,000 cells/mL in a volume of 4 mL of X-VIVO 10 (i.e., 800,000 cells total per well). Dl-FRIL and/or recombinant E. coli Flt3-L (recFL; BioSource International, Camarillo, Calif.) were added at a concentration of 40 ng/ml at the outset (with no addition as a control). Cultures were incubated in humidified chambers without medium changes for up to 29 days.
After incubation, the cultured CB mnc cells were harvested by washing in X-VIVO 10 (i.e., harvested cells were pelleted and resuspended in X-VIVO 10) to remove the Dl-FRIL and/or recFL, and then determining viable cell number by trypan blue (Sigma) exclusion.
The progenitor capacity of the blast-like colonies was examined further for cells initially cultured for 3 weeks in either Dl-FRIL, recFL, no addition, or Dl-FRIL+recFL, and then without these regulators for an additional 6 weeks in a methylcellulose colony assay. […] Viable cells were harvested from the cells initially cultured in Dl-FRIL alone and replated in an colony assay (in methylcellulose colony assay medium) for an additional 4 weeks.

CB CD34+ cells = assay: cell cycle analysis of CD34+ cells (propidium iodide); conditions: CD34+ cells cultured 3 days; mean ± SE
Protocol: Cells were analyzed for their DNA content by staining with propidium iodide (Sigma). The cells were cultured in ex vivo cultures as described, for 3, 6, 10, and 13 days as indicated. At each time point, the cells were collected, resuspended to a final concentration of 0.1-1×10^6 cells/mL, and incubated with 0.1% Triton X 100 (Sigma) for 20 minutes on ice. 50 mg/mL propidium iodide (PI) were added before analysis. Flow cytometeric analyses were performed using FACSort (Becton Dickinson, San Jose, Calif.).
The cell cycle status of CB CD34^+ cells was analyzed in 5 indepenent experiments with cells cultured for 3-13 days with either Dl-FRIL or a cytokine combination (SCF, Flt3-L, G-CSF, IL-3, IL-6) (Bhatia et al., J. Exp. Med. 186:619-624, 1997; Conneally et al., Proc. Natl. Acad. Sci. USA 94:9836-9841, 1997).

Molecule “Pv-FRIL (native, from Phaseolus vulgaris red kidney bean extract / purified from PHA-LCM)” has a Specific Activity (u/mg) in the Flt3 3T3 assay, Superdex 75 step [1] of 244000 units/mg.

B1: peanut agglutinin (PNA): dietary lectin from raw peanuts (protein, UniProt P02872 24-273, looked up)
Galactose-binding lectin: AETVSFNFNSFSEGNPAINFQGDVTVLSNGNIQLTNLNKVNSVGRVLYAMPVRIWSSATGNVASFLTSFSFEMKDIKDYDPADGIIFFIAPEDTQIPAGSIGGGTLGVSDTKGAGHFVGVEFDTYSNSEYNDPPTDHVGIDVNSVDSVKTVPWNSVSGAVVKVTVIYDSSTKTLSVAVTNDNGDITTIAQVVDLKAKLPERVKFGFSASGSLGGRQIHLIRSWSFTSTLITTTRRSIDNNEKKIMNMASA
In the case of B1, the “level in the blood” value [2] is given as 1000 to 5000 ng/mL.

B2: recombinant hIL1-α: exogenous recombinant human interleukin 1-α (protein, UniProt P01583 113-271, looked up)
Interleukin-1 alpha: SAPFSFLSNVKYNFMRIIKYEFILNDALNQSIIRANDQYLTAAALHNLDEAVKFDMGAYKSSKDDAKITVILRISKTQLYVTAQDEDQPVLLKEMPEIPKTITGSETNLLFFWETHGTKNYFTSVAHPNLFIATKQDYWVCLAGGPPSITDFQILENQA
With B2 the “stimulatory activity on Flt3 3T3 cells” value [3] was “no stimulatory activity”.

B3: recFL: recombinant E. coli Flt3-L (FLT3 ligand) (protein, UniProt P49771 27-235, looked up)
Fms-related tyrosine kinase 3 …: TQDCSFQHSPISSDFAVKIRELSDYLLQDYPVTVASNLQDEELCGGLWRLVLAQRWMERLKTVAGSKMQGLLERVNTEIHFVTKCAFQPPPSCLRFVQTNISRLLQETSEQLVALKPWITRQNFSRCLELQCQPDSSTLPPPWSPRPLEATAPTAPQPPLLLLLLLPVGLLLLAAAWCLHWQRTRRRTPRPGEQVPPVPSPQDLLLVEH
In the case of B3, the “increase in number of total cells” value ([4]; 10 days of suspension culture, FIG. 34A) is reported as 4.5 fold, the “percentage of CFU-GEMM” value ([4]; first factor 6 days, then cytokines) is reported as 18.2% and the “rescue of FLT3-transfected 3T3 cells from death” value (FLT3 receptor) is reported as “rescue FLT3-transfected cells from death”. The “colonies after 21 days culture and 6 weeks methylcellulose colony assay” value [5] was “No colonies were detected”, the “fewer mature colonies than with FRIL or FRIL plus recFL” value ([5]; cells cultured 15 days) was 24 fold and the Blast colonies ([5]; day 15 of culture) was 0. It also gave an Erythroid colonies ([5]; day 15 of culture) of 0, a Mix colonies ([5]; day 15 of culture) of 0 and a Myeloid colonies ([5]; day 15 of culture) of 40 ± 69. The Blast colonies ([5]; day 21 of culture) was 0, the Erythroid colonies ([5]; day 21 of culture) was 0 and the Mix colonies ([5]; day 21 of culture) was 0. For the same molecule, the Myeloid colonies ([5]; day 21 of culture) was 0, the Blast colonies ([5]; day 29 of culture) was 0 and the Erythroid colonies ([5]; day 29 of culture) was 0. For the same molecule, the Mix colonies ([5]; day 29 of culture) was 0, the Myeloid colonies ([5]; day 29 of culture) was 0 and the G0/G1 (CB CD34+ cells) was 68.4 ± 2.1 percentage. For the same molecule, the SG2M (CB CD34+ cells) was 22.2 ± 5.4 percentage and the “Sub G0/G1” value (CB CD34+ cells) was 9.4 ± 3.3 percentage.

From patent US6991794B1, “Progenitor cell preservation factors and methods for and products of their use” (ImClone Systems Incorporated, priority 1997, dated 2006)
